From doi:10.1101/2024.10.12.618001, “High yield purification of an Isoleucine zipper modified CD95 Ligand with either biotin or DNA-oligomer binding domain for efficient Cell Apoptosis Induction” (bioRxiv, 2024) come the findings set out here.

B1: CD95-His receptor protein (Sino Biological) (receptor, UniProt P25445 26-173, looked up)
chain: QVTDINSKGLELRKTVTTVETQNLEGLHHDGQFCHKPCPPGERKARDCTVNGDEPDCVPCQEGKEYTDKAHFSSKCRRCRLCDEGHGLEVEINCTRTQNTKCRCKPNFFCNSTVCEHCDPCTKCEHGIIKECTLTSNTKCKEEGSRSN
notes: CD95 (Fas, Apo-1) receptor protein with His-tag; also called Fas; Apo-1; source: bought: Sino Biological

In data set [1] the target is T1, soluble CD95L (Enzo Life Sciences) (UniProt P48023 130-281).
T1 construct: soluble CD95 ligand (CD95L, Fas ligand); The conclusion calls it the unmodified CD95L; also called sCD95L; source: bought: Enzo Life Sciences
T1 sequence (looked up): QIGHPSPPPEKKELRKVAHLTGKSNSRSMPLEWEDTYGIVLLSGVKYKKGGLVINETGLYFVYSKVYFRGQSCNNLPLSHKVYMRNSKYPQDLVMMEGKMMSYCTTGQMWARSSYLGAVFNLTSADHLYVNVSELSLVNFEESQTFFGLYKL
Nature of the data set: ELISA; CD95-His coated at 2 µg/ml in PBS overnight at 4 °C; ligand 0.1-100 nM in 0.5 % BSA/PBST, 2 h at r.t.; detected with anti-CD95L antibody and HRP secondary; 4-parameter logistic fit. Conditions: both partners purified. In general terms: ELISA stands for enzyme-linked immunosorbent assay.

Data set [2] concerns the target B1. The description is as above. Particulars: both partners purified.
Data set [3] concerns the molecule itself. Kind of data set: SEC; Superdex 75 10/300 GL, PBS pH 7.4, 0.3 ml/min; 350 µl CD95L-IZ-His at 0.409 mg/ml; protein standard mix for sizes; curve fitted with three Gaussians. Background: SEC sorts molecules by how far they enter the pores of the column.

Where “and” joins values, the source holds several entries; their conditions need not be identical. Equal values may be shown once.

By Kd is commonly meant the free concentration of one partner at which half of the binding sites on the other are occupied at equilibrium, for simple one-to-one binding. Regarding B1, binding in data set [1] was characterised by a dissociation constant (Kd) of 11.3 nM.

B2: CD95L-IZ-biotin (CD95L-IZ after His-tag cleavage, biotinylated at the extra cysteine) (ligand)
chain: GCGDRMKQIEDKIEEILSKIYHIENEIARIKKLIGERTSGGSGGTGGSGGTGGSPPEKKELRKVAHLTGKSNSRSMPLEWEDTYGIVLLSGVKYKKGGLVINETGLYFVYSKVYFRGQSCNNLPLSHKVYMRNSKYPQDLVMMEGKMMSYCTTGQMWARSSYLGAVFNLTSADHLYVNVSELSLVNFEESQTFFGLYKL
modifications: biotin (biotin-C5-maleimide) on the extra cysteine; glycosylated
notes: What is left after TEV cleavage: Gly, extra cysteine, isoleucine zipper (IZ) and linker; CD95 ligand (CD95L, Fas ligand, CD178, TNFSF6), human, extracellular domain, amino acids 137-281; also called CD95L-IZ-X; source: HEK293T, transient transfection, secreted; purified (anti-His-tag antibody agarose beads), His-tag cut with TEV protease, labelled with biotin-C5-maleimide; not shown: His8, …
For the molecule B2, binding in data set [2] was put at a Kd of 0.68 nM.

B3: CD95L-IZ-His (His8-TEV-Cys-IZ-CD95L (137-281), secreted form) (ligand)
chain: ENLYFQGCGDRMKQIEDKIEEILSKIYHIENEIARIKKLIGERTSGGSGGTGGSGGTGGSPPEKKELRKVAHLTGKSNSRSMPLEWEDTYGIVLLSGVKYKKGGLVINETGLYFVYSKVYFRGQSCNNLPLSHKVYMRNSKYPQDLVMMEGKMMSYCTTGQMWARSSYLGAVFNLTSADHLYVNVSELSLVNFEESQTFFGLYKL
modifications: glycosylated (the paper suggests three to five N-glycans)
notes: TEV protease site ENLYFQ, extra cysteine, isoleucine zipper (IZ, variant of the GCN4 leucine zipper) and linker; CD95 ligand (CD95L, Fas ligand, CD178, TNFSF6), human, extracellular domain, amino acids 137-281; The natural CD95L part is fused to a designed trimerisation motif; also called CD95L-IZ with His-tag; CD95-IZ-His; source: HEK293T, transient transfection (PEI), secreted into the medium; …
A word on the stoichiometry N: it is a count of units in the complex or per binding partner. On to B3, for which the “stoichiometry N” value in data set [3] was 3 and 2.
